Experiments:
Test in all cases: ELISA
H1 HA = target: H1 HA
H7 HA = target: H7 HA
H8 HA = target: H8 HA
H2 HA = target: H2 HA
H14 HA = target: H14 HA
H5 HA = target: H5 HA
H3 HA = target: H3 HA
H13 HA = target: H13 HA
B-Phuket HA = target: B-Phuket HA
H4 HA = target: H4 HA
H9 HA = target: H9 HA
H10 HA = target: H10 HA
H6 HA = target: H6 HA

B1: S1V2-51 IgG (antibody, V domains shown)
VH: QVQLVESGGGVVQPGRSLRLSCVASGFTFRDSVMHWVRQAPGKGLEWVAVTSFDGGESYSADSVKGRFTISRDNSKSTLSLQMNILRPEDTGVYYCARDRGGLDVWGQGTTVTVSG
VL: DIVMTQSPESLAVSLGERATINCKSSQSVSFGSSDKNYLGWYQQKPGQPPKLLINWASTRESGVSDRFRGTGSGTDFTLTISSLQAEDAAVYYCHQYYTPPYSFGQGTKLEIK
- Kd (H1 HA): > 100 nM
- Kd (H7 HA): 0.21 nM
- Kd (H8 HA): 0.41 nM
- Kd (H2 HA): > 100 nM
- Kd (H14 HA): > 100 nM
- Kd (H5 HA): > 100 nM
- Kd (H3 HA): 0.26 nM
- Kd (H13 HA): > 100 nM
- Kd (B-Phuket HA): > 100 nM
- Kd (H4 HA): 0.21 nM
- Kd (H9 HA): 0.21 nM
- Kd (H10 HA): 0.42 nM
- Kd (H6 HA): 84 nM
